We go through five molecules from patent US20260139023A1 (Dana-Farber, published 2026).

For assay [1], the target named is T1, αVβ5/Hsp90α complex (reconstituted from recombinant human αVβ5 ectodomain and recombinant human Hsp90α) (human, UniProt P06756 32-991; P18084 24-717; P07900 2-732, glycosylated).
T1 construct: range 32-991;range 24-717;mature; also called integrin/Hsp90α complex
Description: fluorescence anisotropy competition: unlabeled WT irisin (0 to 6000 nM) against the labelled WT irisin probe on the αVβ5/Hsp90 complex; black curve.

In assay [2] the target is T1, αVβ5/Hsp90α complex (reconstituted from …). Description: fluorescence anisotropy competition: 50 nM A488-irisin-His probe and 125 nM αVβ5 (as αVβ5/Hsp90α complex), unlabeled untagged irisin varied 0-6000 nM. An excerpt:
(§1) The domain boundaries are as follows: αV, 32-991; β5, 24-717.
A general note: In fluorescence polarisation assays a small probe gives low polarisation when free and higher when bound to something large.

Assay [3] shares this target. Description: fluorescence anisotropy competition, 50 nM A488-irisin-His and 125 nM αVβ5/Hsp90α, varied unlabeled untagged irisin (FIG. 1H).
Source text: as §1

Assay [4] concerns the target T2, recombinant human integrin αVβ5 ectodomain (human, UniProt P06756 32-991; P18084 24-717, glycosylated with heterogeneous glycans).
T2 construct: range 32-991;range 24-717; Used in the solution assays (anisotropy, MST, HDX-MS, FRET); An introduced Cys and the rest of the HRV3C site would remain after cleavage; also called αVβ5 alone; αVβ5/Mn2+
Put plainly: fluorescence anisotropy, direct binding: labelled irisin N45Q with varied aVß5 concentration (0 to 1000 nM); grey curve and grey label.

Assay [5] deals with T1, αVβ5/Hsp90α complex (reconstituted from …). Description: fluorescence anisotropy competition: unlabeled N45Q (0 to 6000 nM) against the labelled WT irisin probe on the αVβ5/Hsp90 complex; grey curve.
For assay [6], the target named is T2, recombinant human integrin αVβ5 …. Put plainly: fluorescence anisotropy competition: 50 nM A488-irisin-WT probe and 1000 nM αVβ5, unlabeled irisin-WT varied 0-4000 nM.
Assay [7] shares this target. Description: fluorescence anisotropy competition: 50 nM A488-irisin-bac probe and 1000 nM αVβ5, unlabeled irisin-bac varied 0-4000 nM.
For assay [8] the target is unchanged. Put plainly: fluorescence anisotropy, A488-irisin-bac, αVβ5 varied 0-6000 nM, 1 mM MnCl2.
Assay [9] has the same target. Description: fluorescence anisotropy, A488-irisin-bac, varied αVβ5, 1 mM MnCl2 (FIG. 7D); direct binding, A488-irisin-bac (FIG. 7D).
Assay [10] shares this target. Put plainly: fluorescence anisotropy competition, 50 nM A488-irisin-WT (bacterial) and 1000 nM αVβ5, varied unlabeled irisin-WT (FIG. 7F); competition, wild type bacterial dimer, run beside R75E (FIG. 7F).
For assay [11] the target is unchanged. Put plainly: fluorescence anisotropy, compared with irisin-mam on αVβ5.
Assay [12] has the same target. Description: fluorescence anisotropy competition, 50 nM A488-irisin-bac and 1000 nM αVβ5, varied unlabeled irisin-bac (FIG. 7E); competition, unlabeled irisin-bac vs A488-irisin-bac (FIG. 7E).
The target is the same in assay [13]. Description: fluorescence anisotropy competition, 50 nM A488-irisin-WT (bacterial) and 1000 nM αVβ5, varied unlabeled irisin-R75E (FIG. 7F); competition, R75E monomer mutant (FIG. 7F).
The target is the same in assay [14]. Put plainly: fluorescence anisotropy competition: 50 nM A488-irisin-WT probe and 1000 nM αVβ5, unlabeled irisin-R75E varied 0-4000 nM.
For assay [15] the target is unchanged. Description: fluorescence anisotropy competition: 50 nM A488-irisin-bac probe and 1000 nM αVβ5, unlabeled irisin-mam (irisin-His) varied 0-4000 nM.
In assay [16] the target is T1, αVβ5/Hsp90α complex (reconstituted from …). Description: fluorescence anisotropy, 50 nM A488-irisin-His, varied αVβ5/Hsp90α complex, 1 mM MgCl2 and 1 mM CaCl2 (FIG. 1G).
Source text: as §1

Assay [17] shares this target. Description: summary sentence of Example 2: αVβ5 receptor activated by eHsp90α; αVβ5 activated by eHsp90α; rounded summary value.
Assay [18] addresses T2, recombinant human integrin αVβ5 …. Put plainly: fluorescence anisotropy binding assay with labelled irisin, αVβ5 varied 0-1000 nM as the positive curve beside the Hsp90α curves; buffer and activation state of αVβ5 not given in the legend.
For assay [19] the target is unchanged. Put plainly: fluorescence anisotropy competition, 50 nM A488-irisin-bac and 1000 nM αVβ5, varied unlabeled irisin-mam (irisin-His) (FIG. 7E); competition, unlabeled irisin-mam vs A488-irisin-bac (FIG. 7E).
Assay [20] deals with T3, recombinant human Hsp90α (purified from E. coli, untagged) (human, UniProt P07900 2-732).
T3 construct: mature; Tested as Apo and as ATP-, AMP-PNP- and ADP-charged forms; also called eHsp90α; Hsp90α-Apo
Put plainly: fluorescence anisotropy binding assay with labelled irisin, Hsp90α without nucleotide or charged with ATP, AMP-PNP or ADP varied 0-2500 nM.

Assay [21] has as its target T4, clasped and tagged αVβ5 (recombinant human αVβ5 ectodomain with C-terminal coiled-coil clasp and affinity … (human, UniProt P06756 32-991; P18084 24-717, glycosylated).
T4 construct: range 32-991;range 24-717; Used in BLI (streptavidin sensors) and TALON pull-downs; also called clasped αVβ5; immobilized clasped αVβ5; not shown: introduced Cys, HRV3C site, acidic α-helical coiled-coil and twin Strep-II tag; introduced Cys, HRV3C site, basic α-helical coiled-coil and 8xHis tag
Put plainly: BLI (Octet RED384), clasped and tagged αVβ5 on streptavidin sensors, 1 mM MgCl2 and 1 mM CaCl2; affinity-purified αVβ5 preparation that still held co-purified Hsp90α (FIG. 1B). As to the method:
as §1
Biolayer Inferometry (BLI) measurements were conducted by Octet RED384. […] Data analysis HT software was used for the fitting and Kd calculations.
Background: Biolayer interferometry detects binding as a change in optical thickness at a sensor tip.

Assay [22] addresses T2, recombinant human integrin αVβ5 …. Put plainly: fluorescence anisotropy, direct binding: labelled irisin WT with varied aVß5 concentration (0 to 1000 nM); black curve and black label.
Assay [23] deals with T1, αVβ5/Hsp90α complex (reconstituted from …). Description: fluorescence anisotropy competition, 50 nM A488-irisin-His and 125 nM αVβ5/Hsp90α, varied unlabeled irisin-His (FIG. 1H).
Source text: as §1

Assay [24] concerns the target T2, recombinant human integrin αVβ5 …. Description: fluorescence anisotropy, 50 nM A488-irisin-His, αVβ5 in 1 mM MnCl2 (FIG. 4D).
Assay [25] concerns the target T1, αVβ5/Hsp90α complex (reconstituted from …). Description: fluorescence anisotropy, 50 nM A488-irisin-His, αVβ5/Hsp90α complex in 1 mM MgCl2 and 1 mM CaCl2 (FIG. 4D).
For assay [26] the target is unchanged. Put plainly: fluorescence anisotropy competition: 50 nM A488-irisin-His probe and 125 nM αVβ5 (as αVβ5/Hsp90α complex), unlabeled irisin-His varied 0-6000 nM.
Source text: as §1

Substitutions are numbered along the chain they refer to. Numbers in names are those of the source.

B1: untagged irisin (wild-type, glycosylated recombinant irisin from mammalian cells) (ligand)
chain: DSPSAPVNVTVRHLKANSAVVSWDVLEDEVVIGFAISQQKKDVRMLRFIQEVNTTTRSCALWDLEEDTEYIVHVQAISIQGQSPASEPVLFKTPREAEKMASKNKDEVTMKE
modifications: N-glycosylated at N36, N45 and N81 (numbers as printed)
notes: also called unlabeled and untagged irisin; WT irisin
By IC50 is commonly meant the concentration that inhibits the measured activity by half. A word on the Ki: it is the dissociation constant of the complex between target and ligand, obtained from inhibition or displacement. The term Kd denotes the free concentration of one partner at which half of the binding sites on the other are occupied at equilibrium, for simple one-to-one binding. Regarding B1, in assay [1], the IC50 is 440 nM and the Ki came out at 56 nM. In assay [2], the IC50 amounted to 477 nM. For the same molecule, the Kd in assay [3] was found to be 50 nM.

B2: irisin N45Q mutant (irisin glycosylation mutant, recombinant, from mammalian Expi293 cells) (ligand)
chain: B1 chain with N17Q
modifications: glycosylated at positions 36 and 81; position 45 is Q, not N-glycosylated
In the case of B2, in [4], the Kd is 32 nM. Further, in [5], the IC50 is 35 nM and the Ki amounted to 9 nM.

B3: irisin-bac (non-glycosylated irisin dimer produced in bacteria) (ligand, UniProt Q8K4Z2 61-171, looked up)
chain: SPSAPVNVTVRHLKANSAVVSWDVLEDEVVIGFAISQQKKDVRMLRFIQEVNTTTRSCALWDLEEDTEYIVHVQAISIQGQSPASEPVLFKTPREAEKMASKNKDEVTMKE
modifications: Alexa Fluor 488 label where used as probe
notes: also called A488-irisin-bac
On to B3, for which the IC50 in assay [6] is 1270 nM; in assay [7], 1190 nM. The Kd in [8] is 317 nM; in assay [9] it was 256 nM; in assay [10], 299 nM; in assay [12], 294 nM. Further, the “fold weaker affinity than irisin-mam” value in assay [11] is about 8 fold.

B4: irisin-R75E (non-glycosylated irisin monomer mutant R75E from bacteria) (ligand, UniProt Q8K4Z2-1 30-140, looked up)
chain: B3 chain with R46E
notes: also called monomeric mutant
B4: the Kd in assay [13] worked out at 42 nM. The IC50 in [14] was 198 nM.

B5: irisin-His (wild-type, glycosylated recombinant irisin, His tagged, from mammalian cells) (ligand)
chain: DSPSAPVNVTVRHLKANSAVVSWDVLEDEVVIGFAISQQKKDVRMLRFIQEVNTTTRSCALWDLEEDTEYIVHVQAISIQGQSPASEPVLFKTPREAEKMASKNKDEVTMKEHHHHHHHHHHRDPLEVLFQ
modifications: N-glycosylated at N36, N45 and N81 (numbers as printed); Alexa Fluor 488, 555 or 647 label where the assay says so
notes: Monomer by SEC-MALS; also called irisin-mam; A488-irisin-His
As to B5, the IC50 in [15] came to 165 nM; in [26], 499 nM. Also, the Kd in assay [16] is 31 nM; in [17] it was about 30 nM; in assay [18], 43 nM; in assay [19], 35 nM; in assay [21], 212 nM; in [22], 6 nM. Further, the Kd in [23] was found to be 52 nM; in assay [24], 28 nM; in assay [25], 37 nM. The binding result in assay [20] was “no binding (tested: 2500 nM)”.
